± gives the uncertainty stated by the source.
assay: amyloid nucleation score (Sup35N fusion, yeast selection) (log enrichment); library NNK2; higher = more nucleation; inactive = no reads after selection
How it was run: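 After 24 hours of induction with 100 μM copper sulfate, psi-negative yeast expressing peptides of 20 random codons fused to Sup35N were grown for 7 days at 30°C on medium lacking adenine and uracil. Input and output plasmid inserts were sequenced with Illumina, and sequences with under 100 input reads were discarded. Scores for nucleation are the DiMSum log enrichment of output over input reads, centred on the mode score of non-aggregating sequences.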

For GSKDFLV, which amyloid nucleation score is on record?
Its amyloid nucleation score is -0.047 ± 1.1.

Which amyloid nucleation score does the source give for AVQVLYRGTFLLPFWRVANV here?
Its amyloid nucleation score is -0.487 ± 1.1.

Which amyloid nucleation score does the source give for RSGLYM here?
The amyloid nucleation score was -0.55 ± 0.64.

Which amyloid nucleation score does the source give for CTSLLI here?
The amyloid nucleation score was -0.545 ± 0.48.

Which amyloid nucleation score does the source give for FRVIWVVLVACQVSFHVRFV here?
The amyloid nucleation score was -0.283 ± 1.

With GNMYLSEVNVTC as the substance, how does the amyloid nucleation score read?
The amyloid nucleation score was -0.78 ± 1.1.

Which amyloid nucleation score does the source give for NLYTA here?
The amyloid nucleation score was 0.49 ± 0.29.

With SQVGTW as the substance, how does the amyloid nucleation score read?
The amyloid nucleation score was 0.795 ± 0.41.

Which amyloid nucleation score does the source give for SGWTFGVQCLYTLVSMFLLC here?
Its amyloid nucleation score is 1.5 ± 0.12.

Which amyloid nucleation score does the source give for TLYMFMPMLFNVIPEVRWPP here?
Its amyloid nucleation score is 9.03 ± 0.071.

Which amyloid nucleation score does the source give for GYSAYESANWRLA here?
The amyloid nucleation score was 1.19 ± 0.44.

With FLNPYNFWLDFWYFLIDSMT as the substance, how does the amyloid nucleation score read?
Its amyloid nucleation score is “inactive”.

Which amyloid nucleation score does the source give for GGLELLLGKMNVNVAMLKSF here?
Its amyloid nucleation score is 1.09 ± 0.17.

With EAHILRLYMLSRLSGIVHMV as the substance, how does the amyloid nucleation score read?
The amyloid nucleation score was 0.434 ± 0.56.

Which amyloid nucleation score does the source give for VRDIVYRYSGGRRS here?
The amyloid nucleation score was “inactive”.

With TGVKRIMSGSIIFPFLAVSF as the substance, how does the amyloid nucleation score read?
Its amyloid nucleation score is -0.751 ± 1.1.

For ISVVNSGCCCITTHPLRTYR, which amyloid nucleation score is on record?
The amyloid nucleation score was 9.867 ± 0.079.

With SIYKIILNSILPPHYNFLTY as the substance, how does the amyloid nucleation score read?
Its amyloid nucleation score is -1.21 ± 1.

With NEVVFRVYK as the substance, how does the amyloid nucleation score read?
Its amyloid nucleation score is 3.22 ± 0.068.

Which amyloid nucleation score does the source give for VKITGPRWLATIICYMFR here?
Its amyloid nucleation score is 6.47 ± 0.075.

Which amyloid nucleation score does the source give for WVYNLALCNSRVIKG here?
Its amyloid nucleation score is -0.51 ± 0.48.

For AWEAPPYMCRDILRSWRGRL, which amyloid nucleation score is on record?
Its amyloid nucleation score is 0.757 ± 0.51.

With LYWYKY as the substance, how does the amyloid nucleation score read?
Its amyloid nucleation score is -0.414 ± 0.79.

For YFIGGGLRVMSRWWMCALMD, which amyloid nucleation score is on record?
The amyloid nucleation score was 3.24 ± 0.086.

Which amyloid nucleation score does the source give for ERYKCVYDNDRLMSLTSPDL here?
The amyloid nucleation score was -0.429 ± 0.29.

For STQRIEDIEIVEQKCPACIG, which amyloid nucleation score is on record?
Its amyloid nucleation score is 0.754 ± 0.3.

With SYTMVTLPSPSL as the substance, how does the amyloid nucleation score read?
Its amyloid nucleation score is -0.224 ± 0.23.

With IQVRRITG as the substance, how does the amyloid nucleation score read?
The amyloid nucleation score was 0.089 ± 0.29.

With SVIRSCVNIDSLVKVEWGAS as the substance, how does the amyloid nucleation score read?
The amyloid nucleation score was 6.717 ± 0.052.

With FSVDMHRWLMTWRHQRDRRV as the substance, how does the amyloid nucleation score read?
Its amyloid nucleation score is 2.75 ± 0.18.

For VKFVLQVYYGVPST, which amyloid nucleation score is on record?
Its amyloid nucleation score is 0.307 ± 0.27.

Which amyloid nucleation score does the source give for DNVGYYNINKDLKFIVGSSH here?
The amyloid nucleation score was 0.274 ± 1.1.

With FLTYRLSNYYTPGKFCVYFK as the substance, how does the amyloid nucleation score read?
Its amyloid nucleation score is “inactive”.

With VFTTQEGTTTIPRNSMIEYA as the substance, how does the amyloid nucleation score read?
Its amyloid nucleation score is -0.193 ± 0.37.

For MRTNRLKSVV, which amyloid nucleation score is on record?
Its amyloid nucleation score is 0.275 ± 0.33.

Which amyloid nucleation score does the source give for NERFFKILCWLFRRNSFTIE here?
Its amyloid nucleation score is -2.24 ± 1.

For TASSLCIQVGYVIFLY, which amyloid nucleation score is on record?
The amyloid nucleation score was 8.072 ± 0.032.

With ISFWYHSKTS as the substance, how does the amyloid nucleation score read?
Its amyloid nucleation score is 0.318 ± 0.57.

With CFIFKWFYYCLSVSTIDMSV as the substance, how does the amyloid nucleation score read?
The amyloid nucleation score was -2.48 ± 1.1.

With VRMSQKDGKTPFQMFGHLEM as the substance, how does the amyloid nucleation score read?
The amyloid nucleation score was 0.039 ± 0.21.

Which amyloid nucleation score does the source give for SWWTMWLLTRLRNSSSWGMT here?
Its amyloid nucleation score is 0.011 ± 0.23.

With CTMWVDVCLSCDHMRYDNGG as the substance, how does the amyloid nucleation score read?
Its amyloid nucleation score is 5.96 ± 0.093.

Which amyloid nucleation score does the source give for NAICPIKVSGFGCLSKR here?
The amyloid nucleation score was 0.092 ± 1.1.

Which amyloid nucleation score does the source give for VNNYWNDSCARSLNMGRTGR here?
The amyloid nucleation score was 0.791 ± 0.27.

For MWRGQCV, which amyloid nucleation score is on record?
The amyloid nucleation score was 1.06 ± 0.24.

Which amyloid nucleation score does the source give for WVAFANFVHGLMTLGHWGSR here?
Its amyloid nucleation score is 1.28 ± 0.27.

With GLQRKGCP as the substance, how does the amyloid nucleation score read?
Its amyloid nucleation score is -0.356 ± 1.1.

With PSLTVPGVSRYCFS as the substance, how does the amyloid nucleation score read?
The amyloid nucleation score was -1.29 ± 0.75.

Which amyloid nucleation score does the source give for GDTYMGVYANLVMLALYGPG here?
The amyloid nucleation score was 5.2 ± 0.088.

For KTRHKVLRKDL, which amyloid nucleation score is on record?
Its amyloid nucleation score is -1.64 ± 0.54.

With SVIISVVD as the substance, how does the amyloid nucleation score read?
The amyloid nucleation score was -0.851 ± 0.35.

For FNSLGFRLTSCIDRVTLVLW, which amyloid nucleation score is on record?
Its amyloid nucleation score is “inactive”.

Which amyloid nucleation score does the source give for DRAVLRGVVSDNSV here?
Its amyloid nucleation score is 0.439 ± 0.74.

With GEFLYNT as the substance, how does the amyloid nucleation score read?
The amyloid nucleation score was -0.237 ± 1.

Which amyloid nucleation score does the source give for FFQLSYNIQASSNNLMASVS here?
Its amyloid nucleation score is “inactive”.

For LAYIARR, which amyloid nucleation score is on record?
Its amyloid nucleation score is -0.035 ± 0.76.

Which amyloid nucleation score does the source give for NLSDLLFLQSTSEGLSLFSI here?
The amyloid nucleation score was -0.621 ± 0.64.

For TMKWLCN, which amyloid nucleation score is on record?
Its amyloid nucleation score is 4.69 ± 0.054.

For IACIEHWALGWLLCVSGVRV, which amyloid nucleation score is on record?
The amyloid nucleation score was 0.534 ± 0.5.

For ALGVPLYMIEGIGKCLLSLK, which amyloid nucleation score is on record?
The amyloid nucleation score was 1.24 ± 0.43.

Which amyloid nucleation score does the source give for DWWLNGLFP here?
The amyloid nucleation score was “inactive”.

With GGNSQMFRLSLGDTKCSGSY as the substance, how does the amyloid nucleation score read?
The amyloid nucleation score was -1.06 ± 1.1.

For KAIYPYLI, which amyloid nucleation score is on record?
The amyloid nucleation score was “inactive”.

Which amyloid nucleation score does the source give for MCTGRFFSITSYGCKESSYL here?
Its amyloid nucleation score is 1.49 ± 0.26.

For SLTVFHLKYMSQNIKAE, which amyloid nucleation score is on record?
The amyloid nucleation score was -0.797 ± 1.

For MEFDVLSIFQRGSRAGAK, which amyloid nucleation score is on record?
The amyloid nucleation score was -1.3 ± 0.54.

For MFSPQLSALMILVSYMHDGW, which amyloid nucleation score is on record?
The amyloid nucleation score was 2.04 ± 0.087.

For FFQFTTDSHCND, which amyloid nucleation score is on record?
The amyloid nucleation score was 0.654 ± 0.8.

For VVLLAKYQVCIICIKEDLSN, which amyloid nucleation score is on record?
The amyloid nucleation score was 3.78 ± 0.12.

For LIRGVII, which amyloid nucleation score is on record?
Its amyloid nucleation score is 0.21 ± 0.54.

For SLMDLDFPLTSR, which amyloid nucleation score is on record?
The amyloid nucleation score was -0.334 ± 0.61.

Which amyloid nucleation score does the source give for LAHVVNIVCFNF here?
Its amyloid nucleation score is 7.836 ± 0.026.

For RHAASVWLKDQDVLYPTMT, which amyloid nucleation score is on record?
The amyloid nucleation score was 0.995 ± 0.16.

For DIWPNDLGYVFVLSA, which amyloid nucleation score is on record?
Its amyloid nucleation score is -0.218 ± 0.53.

Which amyloid nucleation score does the source give for ITLLGKVLSGVVKPSYPLAA here?
Its amyloid nucleation score is “inactive”.

Which amyloid nucleation score does the source give for TLVVRGHC here?
The amyloid nucleation score was 2.14 ± 0.11.

For QGCMVSRNRVQHVVGSGLRW, which amyloid nucleation score is on record?
Its amyloid nucleation score is 0.727 ± 0.38.

With SLLIFMSFYYWLQVSYRPPR as the substance, how does the amyloid nucleation score read?
The amyloid nucleation score was -1.3 ± 1.1.

Which amyloid nucleation score does the source give for HFNVPCNCSNCSYGTILSIT here?
The amyloid nucleation score was -0.305 ± 0.8.

Which amyloid nucleation score does the source give for IIEIEGVCAFDWLRIFLILI here?
The amyloid nucleation score was -1.27 ± 0.47.

For PIYCINRFDNWYLL, which amyloid nucleation score is on record?
The amyloid nucleation score was 5.94 ± 0.041.

With ALRLLSFKVMVVEDYLTMTL as the substance, how does the amyloid nucleation score read?
The amyloid nucleation score was 2.91 ± 0.098.

With FVCYADTNNGPQVVRTELSV as the substance, how does the amyloid nucleation score read?
Its amyloid nucleation score is -0.299 ± 1.1.

Which amyloid nucleation score does the source give for FKIDNGWYWCRTCGQNKGSS here?
Its amyloid nucleation score is -0.461 ± 0.56.

With CIFCYANVFAYFTTKGLFVQ as the substance, how does the amyloid nucleation score read?
The amyloid nucleation score was -0.885 ± 0.38.

With FDDRMCLCTIKQSK as the substance, how does the amyloid nucleation score read?
Its amyloid nucleation score is -1 ± 0.78.

Which amyloid nucleation score does the source give for CYSLWRFEQMKLGMKLRGMT here?
The amyloid nucleation score was 0.003 ± 0.43.
